In patent US20230235027A1 (US Dept. of Health and Human Services, published 2023) one finds EC50 data, which are given here for one molecule.

In experiment [1] the target is T1, SARS-CoV-2 RBD mutant W436R (SARS-CoV-2, UniProt P0DTC2 319-541).
T1 construct: bought variant RBD; also called #SPD-552H7, ACRO Biosystems
Description: competition ELISA, RBD variant coated, competitor biotinylated ACE2. (An ELISA detects its analyte on a solid surface through an enzyme-linked reagent.)

Experiment [2] addresses T2, SARS-CoV-2 RBD mutant N354D/D364Y (SARS-CoV-2, UniProt P0DTC2 319-541).
T2 construct: bought variant RBD; also called SPD-S52H3, ACRO Biosystems
The description is as above.

In experiment [3] the target is T3, SARS-CoV-2 RBD mutant V367F (SARS-CoV-2, UniProt P0DTC2 319-541).
T3 construct: bought variant RBD; also called SPD-S52H4, ACRO Biosystems
Described as above.

Experiment [4] addresses T1, SARS-CoV-2 RBD mutant W436R. In words: direct binding to RBD variant (FIG. 7B); format not described further.
The target of experiment [5] is T2, SARS-CoV-2 RBD mutant N354D/D364Y. Described as above.
In experiment [6] the target is T3, SARS-CoV-2 RBD mutant V367F. The description is as above.

Several values for one entry are separate records, joined by “and”; a condition that tells them apart may be missing. Identical values can stand only once.

B1: NIH-CoVnb-112 (VHH)
VHH: DVQLQESGGGLVQPGGSLRLSCAASGLTLDYYAIGWFRQAPGKEREGVSCISSSDGSTYYADSVKGRFTTSRDNAKNTVYLQMNSLKPEDTAVYYCAAVPSTYYSGTYYYTCHPGGMDYWGKGTQVTVSS
As for B1, the EC50 – broadly, the midpoint of the concentration-response curve – in experiment [1] is ~0.02 µg/mL and ~1.11 nM; in experiment [2] it was ~1.11 nM and ~0.02 µg/mL; in experiment [3], ~0.02 µg/mL and ~1.11 nM; in experiment [4], around 0.01 µg/mL; in experiment [5], around 0.01 µg/mL; in experiment [6] it was around 0.01 µg/mL.
